Experimental findings from US20260176659A1, “IMPROVED METHOD FOR THE PRODUCTION OF NATURAL VANILLIN” (BASE SE, priority 2022, published 2026) are described below.

What all share (format): biochemical
The nature of data set [1]: Bioconversion of eugenol to vanillin: one-pot concurrent cascade EUGO + alkene cleavage oxygenase (5 mM scale). Conditions: for Reaction composition after 24 hours 1a (%) / Reaction composition after 24 hours 2a (%) / Reaction composition after 24 hours 3a (%) / Reaction composition after 24 hours 5a (%): Table 8a, EUGO FD-CFE 1 mg/mL, CO-XX FD-CFE 1 mg/mL, catalase 10 mg/mL, eugenol 5 mM; for Reaction composition at 24 hours (%) 1a / Reaction composition at 24 hours (%) 2a / Reaction composition at 24 hours (%) 3a / Reaction composition at 24 hours (%) 5a / Conversion of 1a to 3a (%): EUGO fresh CFE 1 mg/mL, IECO 0 mg/mL; for Conversion of 1a to 3a (%): 24 h. How it is done:
Stock solutions of eugenol (100 mM) were prepared in ethanol or DMSO and stored at −20° C. Unless otherwise stated, the reaction mixtures (0.5 mL) were set up in 1.5 mL glass vials as follows: freeze-dried cell free extract of IECO/CO-XX (3 mg) and EUGO (0.5 mg) were dissolved in the reaction buffer (50 mM glycine-NaOH pH 9.0) containing sodium ascorbate (1 mM), FeSO4 (1 mM) and bovine liver catalase (5 mg, Sigma Aldrich C40). The reaction was initiated by the addition of 0.025 mL eugenol stock (final concentration 5 mM), then incubated at 30° C. and 120 rpm overnight (rotary shaker). The final content of cosolvent was 5% v/v. To improve oxygenation, the vials were placed horizontally. At certain time points, samples (0.2 mL) were quenched with methanol (0.4 mL) and the mixture was centrifuged at 20238 g for 5-10 mins. Finally, the supernatant was analysed by HPLC.
EUGO (0.5 mg CFE), CO-25 (3 mg CFE) and catalase (5 mg, Sigma product #C40) were dissolved in 50 mM Glycine-NaOH pH 9.0 or Tris-HCl pH 8.0 together with FeSO4 (1 mM) and sodium ascorbate (1 mM). Note that the buffer content of the freeze-dried biocatalyst prep was not considered for the assembling of the reaction. The reaction was started by the addition of 5 mM eugenol from a 20× stock in ethanol. The reactions—performed in glass vials—were then incubated at 30° C. and 120 rpm (25 mm shaker). Finally, samples of the reaction mixture were diluted with MeOH and analyzed by HPLC at 280 and 340 nm.

A short description of data set [2]: Spectrophotometric enzymatic assay: cleaving activity, production of vanillin from coniferyl alcohol at 349 nm. Conditions: spectrophotometric assay. On the procedure:
Stock solution 200× of coniferyl alcohol (90 mg) was prepared in ethanol (5 mL) and stored at −20° C. From this, a new stock solution 20× of coniferyl alcohol (10 mM) was freshly prepared by 1:10 dilution in Glycine-NaOH (50 mM, pH 9.0). A cuvette containing 0.750 mL Glycine-NaOH (50 mM, pH 9.0) and 0.05 mL of the substrate 20× stock was pre-warmed at 25° C. for 1.5 mins. Then, the reaction was initiated by the addition of 0.2 mL of the enzyme sample. The cleaving […] activity was measured spectrophotometrically following the production of vanillin at 349 nm (ε349=26.7 mM^−1cm^−1 experimentally determined). One unit of activity (U) is defined as the amount of enzyme required to produce 1 μmol of vanillin per min. Agilent Cary 60 UV-Vis Spectrophotometer was used for all the measurements.
Searching for alternative novel alkene cleavage oxygenases (COs) catalysing the formation of vanillin from coniferyl alcohol was performed. A set of 27 sequences and 10 COs from different branches of the phylogenetic tree were selected, named CO-02-11. Two additional enzymes were included, which are located in different clusters of the phylogenetic tree: Lignostillbene dioxygenase from Pseudomonas brassicaceraum (PbLSD, PDB: 5V2D) and aromatic dioxygenase (Ado, CO-01) from Thermothelomyces thermophilus (GenBank ID: XP_003665585). The proteins were recombinantly expressed in E. coli BL21(DE3), following the same protocol developed for IECO. […] Putative COs were screened by spectrophotometric assay, monitoring the formation of 3a upon 2a cleavage. From a set of twelve COs, four positive hits, namely CO-01, CO-03, CO-06 and CO-07 were found. Positive variants were tested in the one pot cascade and compared them with IECO In agreement with the spectrophotometric screening, all four COs converted eugenol 1a to vanillin 3a (Table 8). The first step of the cascade is efficiently performed by EUGO, and the substrate is completely consumed. […] Overall, 70±3% conversion of 1a to vanillin 3a was achieved.

A short description of data set [3]: Biotransformation of eugenol to coniferyl alcohol by EUGO (50 mM scale). How it is done:
The biotransformation (total volume 3 mL) was performed in a 10 mL round bottom flask with a stir bar. Eugenol (0.023 mL, 25 mg, 0.15 mmol, 1.0 equiv., 50 mM final conc.) was dissolved in DMSO or ethanol (0.150 mL). Then, the solution was diluted with Tis-HCl buffer (50 mM, pH 8.0, 2.827 mL). To obtain a homogeneous dispersion of the eugenol droplets, the mixture was stirred for about 15-20 mins. Then bovine liver catalase (Sigma P #C40, 30 mg, 2300 kU) and EUGO (30 mg of freeze-dried cell free extract, Tris base salt content was neglected) were added consecutively (note: EUGO was added after the catalase was completely dissolved). The reaction was incubated at room temperature and gentle stirring (40 rpm) for 17-24 hours. At certain time points, samples (0.1 mL) were diluted with methanol (0.8 mL, 8 vol equiv.) for stopping the reaction. The samples were centrifuged at 20238×g for 10 mins and the supernatant was analyzed by HPLC. When the reaction was completed, the products were extracted with ethyl acetate (3×1.5 mL EtOAc, in 2 mL microcentrifuge tubes). The aqueous and organic phases were separated by centrifugation (20238×g for ˜3 mins). Then, the organic phase was dried with NaSO4 and concentrated under reduced pressure (40° C., 200 mbar), but not dried completely to avoid polymerization. The concentrate was directly purified by silica gel chromatography (10 mL column volume) using a mixture of 1:1 etylacetate:cyclohexane as eluent. Fractions containing coniferyl alcohol (according to TLC) were combined and concentrated under reduced pressure (40° C., 200 mbar). Final drying under high vacuum (1.5 mbar) and inert gas flow yielded the title compound as yellowish solid (24.2 mg, 0.134 mmol, 90% yield). Notes: The obtained product was stored at −20° C. under inert gas atmosphere. Evaporation of a product solution in chloroform induced polymerization, therefore, no crude NMR was taken before product purification.

Where [4] appears, read: EUGO FD-CFE 10 mg/mL, eugenol 50 mM, catalase 10 mg/mL, pH 8.0, 5% v/v DMSO, room temperature, 17 hours.
The mark [5] stands for this setting: EUGO FD-CFE 10 mg/mL, eugenol 50 mM, catalase 10 mg/mL, pH 8.0, 5% v/v DMSO, room temperature, 24 hours.

“And” between values parts separate entries of the source, which are not always exact repeats. Equal entries are not always repeated.

B1: CO-01: aromatic dioxygenase from Thermothelomyces thermophilus (GenBank XP_003665585), SEQ ID NO: 26 (protein, listed as Thermothelomyces thermophilus)
chain: MAHIHDLAPEVSNYSSGRLTPPTPVRFPRTPVFASMNKPCRFEGDVFDLEVSGAIPPDIDGTFFRVQPDHRFPPLFEDDIHFNGDGSVTAIRISGGHADLRQRYVRTERYLLETRARRSLFGRYRNPWTDNESVRGVIRTASNTNVVFWRGALLAMKEDGPPFAMDPVTLETLGRYDFEGQILSPTFTAHPKIDPDTGEMVCFAYEAGGDGSDCSVDVAVWTVDADGKKVEECWYKAPFAGMIHDCGITKNWVVLPLTPIKMDLERMKRGGNKFAWDPSEDQWYGVVPRRGAKSDDIIWFRADNGFHGHVAGCYELPSGEIVFDLTVADGNVFFFFPPDDNITPPADGVAKRNRLSSPTVRWIFDPKAKKSAIRTEAAGDADIWVADERVKPALTWPTNGEFSRIDDRYVTKPYRHFWQAVVDPTRPYDFEKCGPPAGGLFNCLGHYTWSDQNYHHGHNTGDPSGDGRSNGSAEEATAGKFGLQDVYFAGPTMTFQEPTFIPRQGAAEGEGYLIALLNHLDELRNDVVIFEARNLGKGPLAVIHLPLKLKLGLHGNWVDSREIEAWRRRRAENGDVGPLRVAKEPLPWQKKFAAAAQNGSNGV
In the case of B1, in data set [1] (pH 8.0), the “Reaction composition after 24 hours 1a (%)” value is reported as at most 1%, the “Reaction composition after 24 hours 2a (%)” value turned out to be 74%, the “Reaction composition after 24 hours 3a (%)” value is on record as 9% and the “Reaction composition after 24 hours 5a (%)” value is 17%. Further, in data set [1] (pH 9.0), the “Reaction composition after 24 hours 1a (%)” value is reported as 51%, the “Reaction composition after 24 hours 2a (%)” value is 63%, the “Reaction composition after 24 hours 3a (%)” value turned out to be 13% and the “Reaction composition after 24 hours 5a (%)” value is on record as 24%. The “Screening of putative COs: formation of 3a upon 2a cleavage (hit or inactive)” value in data set [2] is on record as “positive hits”.

B2: CO-06: alkene cleavage oxygenase, Novosphingobium sp., SEQ ID NO: 38 (protein, listed as Novosphingobium sp.)
chain: MNIRFPNNDFTSFEAPMRAEIDLKGLEVIQGEVPRQLSGGFFRLIGDRKWPAFVENDIFMLGEDGMASCFYFKDGQVDFKMRYVRTPRFVAEEKAGRALFGHYRNPFSDDPSVAGLSRGTANVTVLVHAGKMLALKEDSPAIELDPFTLETIGEYDWGGVVTAKAITAHPKIDPKTGELVFFGYCAAGPATRDIAYYEADAEGRIIHETWFEAPYTCMVHDIMVTENYVVFPITPLRHELEWIERNEPAFKWDPSEDVYLGVLPRKGKGEQVRWFKGPNQCHGHTVGAFDDGRFIYADNTFSKRSFFHFFPNTDGSEFNPADAMPFIKRLVIDMESNDDSFTEQQMFGYPCELPRIDTRFETMPYNFVTMNLLDVPEQERIGMGFQWVATMDINGQKPAKIYYAGHDCSIGEPQFVPRSDDAAEGDGYILTVVGKHREMRSELLILDAGDITAPPIATVALPFRLRSTGHGYWYGTRQLRGETNIIGAW
Take B2: in data set [1] (pH 8.0), the “Reaction composition after 24 hours 1a (%)” value is listed as 51%, the “Reaction composition after 24 hours 2a (%)” value was 79%, the “Reaction composition after 24 hours 3a (%)” value was 5% and the “Reaction composition after 24 hours 5a (%)” value is listed as 16%. Besides, in data set [1] (pH 9.0), the “Reaction composition after 24 hours 1a (%)” value is at most 1%, the “Reaction composition after 24 hours 2a (%)” value is 71%, the “Reaction composition after 24 hours 3a (%)” value is on record as 6% and the “Reaction composition after 24 hours 5a (%)” value is 23%. Also, in data set [2], the “Screening of putative COs: formation of 3a upon 2a cleavage (hit or inactive)” value was “positive hits”.

B3: EUGO: eugenol oxidase from Rhodococcus jostii (Uniprot: Q0SBK1), SEQ ID NO: 2, used as cell free extract (protein)
chain: MTRTLPPGVSDERFDAALQRFRDVVGDKWVLSTADELEAFRDPYPVGAAEANLPSAVVSPESTEQVQDIVRIANEYGIPLSPVSTGKNNGYGGAAPRLSGSVIVKTGERMNRILEVNEKYGYALLEPGVTYFDLYEYLQSHDSGLMLDCPDLGWGSVVGNTLDRGVGYTPYGDHFMWQTGLEVVLPQGEVMRTGMGALPGSDAWQLFPYGFGPFPDGMFTQSNLGIVTKMGIALMQRPPASQSFLITFDKEEDLEQIVDIMLPLRINMAPLQNVPVLRNIFMDAAAVSKRTEWFDGDGPMPAEAIERMKKDLDLGFWNFYGTLYGPPPLIEMYYGMIKEAFGKIPGARFFTHEERDDRGGHVLQDRHKINNGIPSLDELQLLDWVPNGGHIGFSPVSAPDGREAMKQFEMVRNRANEYNKDYAAQFIIGLREMHHVCLFIYDTAIPEAREEILQMTKVLVREAAEAGYGEYRTHNALMDDVMATFNWGDGALLKFHEKIKDALDPNGIIAPGKSGIWSQRFRGQNL
modifications: cell free extract; Rhodococcus Jostii
As for B3, in data set [1] (cosolvent DMSO 5% v/v, 5 mM 1a), the “Reaction composition at 24 hours (%) 1a” value is on record as 1≤ %, the “Reaction composition at 24 hours (%) 2a” value is listed as 96%, the “Reaction composition at 24 hours (%) 3a” value was 1≤ % and the “Reaction composition at 24 hours (%) 5a” value is given as 2%. Further, the “Conversion of 1a to 3a (%)” value in data set [1] (cosolvent DMSO 5% v/v, 5 mM 1a) is given as 1≤ %. Further, in data set [1] (cosolvent EtOH 5% v/v, 5 mM 1a), the “Reaction composition at 24 hours (%) 1a” value is given as 1≤ %, the “Reaction composition at 24 hours (%) 2a” value is recorded as 97%, the “Reaction composition at 24 hours (%) 3a” value is given as 1≤ % and the “Reaction composition at 24 hours (%) 5a” value was 2%. For the same molecule, in data set [1] (cosolvent EtOH 5% v/v, 5 mM 1a), the “Conversion of 1a to 3a (%)” value is 1≤ %. Also, the “time in which the oxidation step (1a to 2a) occurs” value in data set [1] (one pot concurrent cascade EUGO-IECO, 5 mM 1a, time studies) is “within the first two hours”. Also, in data set [3] (setting [4]), the “2a” value was 48 mM and 41 mM; the “Reaction composition (%) 2a” value was 95% and 76%; the “Reaction composition (%) 5a” value is 4% and 3%. In addition, in data set [3] (setting [5]), the “2a” value came to 50 mM, the “Reaction composition (%) 1a” value is on record as 0%, the “Reaction composition (%) 2a” value amounted to 95% and the “Reaction composition (%) 5a” value was 5%. In addition, in data set [3] (EUGO cell free extract, 50 mM 1a), the “time within which the substrate was consumed” value was at most 24 h.
